Data from patent publication US20040116336A1, “Peptide derivatives” (priority 2002, published 2004).

Assays:
[1] = molecular target: APJ (orphan G protein-coupled receptor protein); test: radioligand competition, compound of Ref. Ex. 2 as labelled ligand, CHO-A10 membrane fraction
[2] = molecular target: APJ (orphan G protein-coupled receptor protein); test: radioligand competition, 125I-labelled compound of Ref. Ex. 1 (100 pM), CHO-A10 membrane fraction
[3] = molecular target: APJ (orphan G protein-coupled receptor protein); test: cell-based or functional assay

Sequence of APJ (orphan G protein-coupled receptor protein) (P35414 whole entry): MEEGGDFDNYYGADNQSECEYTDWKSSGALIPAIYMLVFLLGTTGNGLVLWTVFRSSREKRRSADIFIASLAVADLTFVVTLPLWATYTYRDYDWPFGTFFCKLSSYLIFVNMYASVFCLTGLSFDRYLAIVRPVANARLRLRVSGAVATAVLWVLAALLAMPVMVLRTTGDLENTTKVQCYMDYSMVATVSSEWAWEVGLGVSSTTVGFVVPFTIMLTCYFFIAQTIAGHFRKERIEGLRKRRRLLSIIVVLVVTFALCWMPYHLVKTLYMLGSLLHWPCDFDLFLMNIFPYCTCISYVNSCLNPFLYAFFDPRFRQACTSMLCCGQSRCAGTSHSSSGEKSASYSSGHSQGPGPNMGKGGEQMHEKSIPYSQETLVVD

Row | IC50 [1] [nM] | IC50 [2] [nM] | EC50, inhibition of forskolin-stimulated cAMP production (CHO-A10 clone 6 cells) [3] [nM] | Substance
1 | 0.1 | 0.2 |  | Arg-Arg-Gln-Arg-Pro-Arg-Leu-Ser-Ala-Arg-Gly-Pro-Met-Pro-Phe(Cl) (peptide)
2 | 0.18 | 0.32 | 0.32 | Arg-Arg-Gln-Arg-Pro-Arg-Leu-Ser-Ala-Arg-Gly-Pro-Met-Pro-Phe(Cl)-NH2 (peptide)
3 | 0.066 | 8 | 0.38 | Arg-Pro-Arg-Leu-Phe-His-Lys-Gly-Pro-Met-Pro-Phe(Cl) (peptide)
4 | 0.29 |  | 0.19 | Arg-Pro-Arg-Leu-Ser-Ala-Arg-Gly-Gly-Met-Pro-Phe(Cl) (peptide)
5 | 0.09 | 0.27 | 0.27 | Arg-Pro-Arg-Leu-Ser-Ala-Arg-Gly-N-MeAla-Met-Pro-Phe(Cl) (peptide)
6 | 0.064 | 0.37 | 0.37 | Arg-Pro-Arg-Leu-Ser-Ala-Arg-Gly-Pro-Ala-Pro-Phe(Cl) (peptide)
7 | 0.036 | 0.91 | 0.32 | Arg-Pro-Arg-Leu-Ser-Ala-Arg-Gly-Pro-Met-Pro-Phe(Cl) (peptide)
8 | 0.11 | 0.69 | 0.69 | Arg-Pro-Arg-Leu-Ser-Dap(Ac)-Arg-Gly-Pro-Cha-Pro-Phe(Cl) (peptide)
9 | 0.26 | 0.52 | 0.52 | Arg-Pro-Arg-Leu-Ser-Dap-Arg-Gly-Pro-Cha-Pro-Phe(Cl) (peptide)
10 |  | 1.4 | 0.41 | Arg-Pro-Arg-Leu-Ser-His-Lys-Gly-Pro-Cha-Pro-Phe(Cl) (peptide)
11 | 0.17 |  | 0.16 | Arg-Pro-Arg-Leu-Ser-His-Lys-Gly-Pro-Met-Phe(Cl) (peptide)
12 | 0.48 |  | 0.43 | pGlu-Arg-Pro-Arg-Leu-Ser-His-Lys-Gly-Pro-Met-Phe(Cl) (peptide)
13 |  |  | 0.4 | pGlu-Arg-Pro-Arg-Leu-Ser-His-Lys-Gly-Pro-Met-Pro-Nal(2) (peptide)
